# How the values were obtained:
# c-Abl (mouse) = test: phosphorylation enrichment, bacterial display (enrichment ratio); higher = better substrate or ligand; peptides without Tyr show the background
# FGFR3 = FGFR3 (UniProt P22607); test: as above
# EPHB1 = EPHB1 (UniProt P54762); test: as above
# Fes = Fes (UniProt P07332); test: as above
# Fyn = Fyn (UniProt P06241); test: as above
# Hck = Hck (UniProt P08631); test: as above
# MERTK = MERTK (UniProt Q12866); test: as above
# Fer (mouse) = test: as above
# EPHB2 = EPHB2 (UniProt P29323); test: as above
# Sequence of EPHB2 (P29323 whole entry, looked up): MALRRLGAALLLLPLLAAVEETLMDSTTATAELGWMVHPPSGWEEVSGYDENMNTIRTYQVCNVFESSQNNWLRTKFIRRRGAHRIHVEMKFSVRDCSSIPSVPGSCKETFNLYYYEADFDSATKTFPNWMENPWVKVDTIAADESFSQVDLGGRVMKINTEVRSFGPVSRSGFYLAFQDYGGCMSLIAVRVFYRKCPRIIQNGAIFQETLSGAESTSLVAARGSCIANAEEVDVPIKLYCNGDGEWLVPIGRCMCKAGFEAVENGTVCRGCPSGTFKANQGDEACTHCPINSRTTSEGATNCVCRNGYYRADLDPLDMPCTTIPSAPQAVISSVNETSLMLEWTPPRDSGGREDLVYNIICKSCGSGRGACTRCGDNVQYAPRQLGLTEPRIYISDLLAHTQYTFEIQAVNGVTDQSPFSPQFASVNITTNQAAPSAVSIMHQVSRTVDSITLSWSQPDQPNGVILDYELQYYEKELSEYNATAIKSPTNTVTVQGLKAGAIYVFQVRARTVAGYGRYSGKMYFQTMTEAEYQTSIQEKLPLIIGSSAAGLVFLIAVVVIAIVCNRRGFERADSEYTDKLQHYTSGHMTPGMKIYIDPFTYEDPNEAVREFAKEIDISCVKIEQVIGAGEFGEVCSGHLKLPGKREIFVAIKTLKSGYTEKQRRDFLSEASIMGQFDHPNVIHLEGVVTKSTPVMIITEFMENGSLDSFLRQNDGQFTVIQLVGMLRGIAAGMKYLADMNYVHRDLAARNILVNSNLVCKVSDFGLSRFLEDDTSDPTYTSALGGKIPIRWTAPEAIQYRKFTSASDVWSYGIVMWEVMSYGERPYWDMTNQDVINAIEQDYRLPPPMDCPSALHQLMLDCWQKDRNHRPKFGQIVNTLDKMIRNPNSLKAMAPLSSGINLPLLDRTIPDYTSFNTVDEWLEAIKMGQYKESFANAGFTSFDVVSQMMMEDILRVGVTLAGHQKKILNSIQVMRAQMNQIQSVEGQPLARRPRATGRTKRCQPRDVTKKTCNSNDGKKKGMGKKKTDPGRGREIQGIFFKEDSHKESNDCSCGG
# c-Src = test: as above
# AncSZ = test: as above
# Jak2 = Jak2 (UniProt O60674); test: as above
# Sequence of Jak2 (O60674 whole entry, looked up): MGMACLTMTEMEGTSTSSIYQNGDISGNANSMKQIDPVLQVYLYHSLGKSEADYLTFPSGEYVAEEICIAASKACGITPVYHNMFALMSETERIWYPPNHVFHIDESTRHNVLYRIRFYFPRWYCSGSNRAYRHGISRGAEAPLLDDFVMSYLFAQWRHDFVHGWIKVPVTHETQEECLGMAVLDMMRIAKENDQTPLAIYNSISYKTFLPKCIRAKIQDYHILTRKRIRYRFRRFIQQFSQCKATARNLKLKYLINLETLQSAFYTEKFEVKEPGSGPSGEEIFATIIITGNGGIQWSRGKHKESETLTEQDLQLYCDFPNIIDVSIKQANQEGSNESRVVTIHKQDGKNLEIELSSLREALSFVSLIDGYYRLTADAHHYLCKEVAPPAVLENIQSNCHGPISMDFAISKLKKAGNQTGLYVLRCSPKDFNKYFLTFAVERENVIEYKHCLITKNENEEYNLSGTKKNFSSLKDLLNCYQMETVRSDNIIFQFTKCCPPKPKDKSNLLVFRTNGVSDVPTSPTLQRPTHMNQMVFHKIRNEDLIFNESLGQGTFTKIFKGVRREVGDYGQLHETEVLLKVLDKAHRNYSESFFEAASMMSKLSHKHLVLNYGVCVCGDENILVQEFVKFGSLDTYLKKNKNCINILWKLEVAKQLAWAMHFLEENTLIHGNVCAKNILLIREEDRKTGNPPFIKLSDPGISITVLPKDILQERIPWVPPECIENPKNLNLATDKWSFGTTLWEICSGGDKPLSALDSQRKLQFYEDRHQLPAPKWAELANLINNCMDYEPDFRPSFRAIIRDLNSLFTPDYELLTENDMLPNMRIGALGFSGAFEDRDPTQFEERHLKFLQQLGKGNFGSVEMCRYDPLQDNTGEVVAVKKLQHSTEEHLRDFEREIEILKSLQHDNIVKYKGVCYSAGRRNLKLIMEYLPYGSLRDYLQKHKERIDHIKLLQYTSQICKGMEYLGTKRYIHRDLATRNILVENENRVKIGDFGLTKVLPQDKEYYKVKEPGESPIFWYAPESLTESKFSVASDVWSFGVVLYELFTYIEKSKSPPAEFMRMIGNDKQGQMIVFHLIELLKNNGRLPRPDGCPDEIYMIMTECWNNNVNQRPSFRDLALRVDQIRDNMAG
# FGFR1 = FGFR1 (UniProt P11362); test: as above
# Grb2 SH2 = Grb2 SH2 (UniProt P62993); test: SH2 binding enrichment of the phosphorylated peptide, bacterial display (enrichment ratio); higher = better substrate or ligand; peptides without Tyr show the background
# SHP2-C SH2 = test: as above
# c-Src SH2 = test: as above
# 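For SH2 binding enrichment of the phosphorylated peptide, bacterial display in this document: peptide library displayed on the E. coli surface as eCPX fusions, selected cells deep-sequenced, score is each peptide's frequency after selection divided by its frequency in the input.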
# 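For phosphorylation enrichment, bacterial display in this document: 11-residue human phosphosite peptides and single-mutation variants displayed on the E. coli surface, counted by deep sequencing, each peptide's frequency after selection divided by its frequency in the unselected input library; frequency after pTyr selection over input frequency; kinase dosed for 20-30% of maximal phosphorylation in three min.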
# Sequence of Fes (P07332 whole entry, looked up): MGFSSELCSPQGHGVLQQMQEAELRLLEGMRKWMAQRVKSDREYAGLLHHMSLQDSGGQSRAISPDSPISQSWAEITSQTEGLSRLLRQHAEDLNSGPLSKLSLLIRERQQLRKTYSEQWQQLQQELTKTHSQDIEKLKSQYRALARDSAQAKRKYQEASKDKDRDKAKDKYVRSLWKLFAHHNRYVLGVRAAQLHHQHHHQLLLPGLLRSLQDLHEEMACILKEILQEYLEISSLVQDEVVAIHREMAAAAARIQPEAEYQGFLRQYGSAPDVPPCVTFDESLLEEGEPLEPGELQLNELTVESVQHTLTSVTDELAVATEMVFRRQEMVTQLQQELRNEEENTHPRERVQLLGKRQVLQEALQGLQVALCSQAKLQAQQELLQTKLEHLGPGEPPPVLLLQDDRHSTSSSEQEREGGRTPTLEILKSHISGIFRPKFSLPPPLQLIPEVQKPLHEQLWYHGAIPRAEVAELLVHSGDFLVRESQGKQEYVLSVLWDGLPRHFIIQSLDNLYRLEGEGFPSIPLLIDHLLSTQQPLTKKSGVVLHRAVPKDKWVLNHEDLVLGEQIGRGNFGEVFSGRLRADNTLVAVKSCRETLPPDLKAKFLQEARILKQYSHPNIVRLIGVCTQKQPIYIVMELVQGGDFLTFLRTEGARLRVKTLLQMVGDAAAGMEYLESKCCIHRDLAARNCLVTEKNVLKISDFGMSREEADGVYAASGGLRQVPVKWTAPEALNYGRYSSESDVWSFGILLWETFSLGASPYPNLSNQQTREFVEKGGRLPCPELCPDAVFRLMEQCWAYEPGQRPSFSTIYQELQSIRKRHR
# Sequence of Hck (P08631 whole entry, looked up): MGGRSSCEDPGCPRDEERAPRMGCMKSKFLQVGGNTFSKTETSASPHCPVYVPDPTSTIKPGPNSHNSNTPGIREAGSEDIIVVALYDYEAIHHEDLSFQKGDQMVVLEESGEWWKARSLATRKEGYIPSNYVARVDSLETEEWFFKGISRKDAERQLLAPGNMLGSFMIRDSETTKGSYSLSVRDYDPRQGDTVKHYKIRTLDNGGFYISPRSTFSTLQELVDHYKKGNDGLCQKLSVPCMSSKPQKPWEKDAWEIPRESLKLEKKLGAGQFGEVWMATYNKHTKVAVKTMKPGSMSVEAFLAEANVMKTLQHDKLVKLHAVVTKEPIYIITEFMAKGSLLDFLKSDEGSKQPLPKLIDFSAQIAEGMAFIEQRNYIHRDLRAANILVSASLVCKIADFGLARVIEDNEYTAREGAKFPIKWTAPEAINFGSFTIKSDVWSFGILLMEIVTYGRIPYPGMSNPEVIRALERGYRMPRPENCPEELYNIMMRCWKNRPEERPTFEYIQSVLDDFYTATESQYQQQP
# Sequence of EPHB1 (P54762 whole entry, looked up): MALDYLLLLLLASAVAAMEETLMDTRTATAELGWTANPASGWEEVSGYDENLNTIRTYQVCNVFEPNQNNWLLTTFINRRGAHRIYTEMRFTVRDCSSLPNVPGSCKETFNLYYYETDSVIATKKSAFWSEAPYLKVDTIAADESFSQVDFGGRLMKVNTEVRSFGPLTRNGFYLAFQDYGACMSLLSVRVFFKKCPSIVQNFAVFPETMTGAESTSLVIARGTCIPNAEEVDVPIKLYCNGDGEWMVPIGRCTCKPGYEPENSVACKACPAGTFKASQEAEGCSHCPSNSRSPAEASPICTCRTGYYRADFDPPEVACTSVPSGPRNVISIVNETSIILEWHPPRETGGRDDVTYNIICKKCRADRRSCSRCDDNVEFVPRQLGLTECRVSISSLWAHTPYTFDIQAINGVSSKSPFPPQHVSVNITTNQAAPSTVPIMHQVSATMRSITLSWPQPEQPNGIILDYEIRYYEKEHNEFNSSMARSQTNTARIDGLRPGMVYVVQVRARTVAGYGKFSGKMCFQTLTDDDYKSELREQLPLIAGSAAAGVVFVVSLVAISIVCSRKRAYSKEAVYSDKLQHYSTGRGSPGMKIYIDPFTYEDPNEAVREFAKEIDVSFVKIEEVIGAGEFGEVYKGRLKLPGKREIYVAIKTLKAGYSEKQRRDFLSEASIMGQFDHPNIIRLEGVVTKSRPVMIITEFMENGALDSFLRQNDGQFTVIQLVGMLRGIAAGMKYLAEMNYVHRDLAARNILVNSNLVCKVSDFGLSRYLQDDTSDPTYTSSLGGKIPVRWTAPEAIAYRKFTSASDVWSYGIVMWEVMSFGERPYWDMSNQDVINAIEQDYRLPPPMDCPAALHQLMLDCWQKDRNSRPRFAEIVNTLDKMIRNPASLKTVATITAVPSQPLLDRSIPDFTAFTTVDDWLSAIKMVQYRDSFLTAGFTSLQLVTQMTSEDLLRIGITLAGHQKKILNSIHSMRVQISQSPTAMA
# Sequence of Fyn (P06241 whole entry, looked up): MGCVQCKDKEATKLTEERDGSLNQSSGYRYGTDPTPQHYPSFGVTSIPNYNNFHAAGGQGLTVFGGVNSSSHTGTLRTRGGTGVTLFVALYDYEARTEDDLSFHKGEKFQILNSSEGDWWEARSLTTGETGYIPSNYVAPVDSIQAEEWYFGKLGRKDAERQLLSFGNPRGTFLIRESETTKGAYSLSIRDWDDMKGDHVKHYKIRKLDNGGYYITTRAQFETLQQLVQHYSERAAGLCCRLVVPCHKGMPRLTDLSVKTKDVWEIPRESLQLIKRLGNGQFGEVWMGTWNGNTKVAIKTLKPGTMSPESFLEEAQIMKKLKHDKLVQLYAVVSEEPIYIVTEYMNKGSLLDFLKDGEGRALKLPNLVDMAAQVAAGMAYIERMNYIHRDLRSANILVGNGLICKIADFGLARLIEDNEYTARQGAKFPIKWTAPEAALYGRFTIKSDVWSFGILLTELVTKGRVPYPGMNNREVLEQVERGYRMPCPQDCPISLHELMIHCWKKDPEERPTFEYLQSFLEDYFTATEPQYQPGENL
Sequence,SH2 binding enrichment (Grb2 SH2),SH2 binding enrichment (SHP2-C SH2),SH2 binding enrichment (c-Src SH2),phosphorylation enrichment (c-Abl (mouse)),phosphorylation enrichment (FGFR3),phosphorylation enrichment (EPHB1),phosphorylation enrichment (Fes),phosphorylation enrichment (Fyn),phosphorylation enrichment (Hck),phosphorylation enrichment (MERTK),phosphorylation enrichment (Fer (mouse)),phosphorylation enrichment (EPHB2),phosphorylation enrichment (c-Src),phosphorylation enrichment (AncSZ),phosphorylation enrichment (Jak2),phosphorylation enrichment (FGFR1)
MNLLGYRQVRS [CHST4_Y359_H361Q],0.686,0.481,0.515,0.679,0.614,0.439,0.72,0.468,0.45,0.438,0.359,0.448,0.411,0.693,0.566,0.399
MENFIYESMRF [CYP19A1_Y361_YF],0.772,0.677,0.562,2.71,0.577,4.14,5.1,8.61,7.67,3.74,14.1,2.63,6.6,1.3,0.626,0.551
GFRPVYSEDEQ [CHST6_Y362_YF],0.904,0.73,0.645,1.27,0.835,0.754,1.49,0.592,0.615,0.559,0.617,0.699,0.836,1.35,1.47,0.584
WHHIFYNELRV [ACTG1_Y91_T89I],0.701,0.638,0.512,0.805,0.911,0.663,1.33,0.388,0.569,0.444,0.536,0.725,0.407,1.14,1.13,0.527
DLSEVYKPCRK [CCDC93_Y176_R179C],0.963,0.853,0.528,0.729,0.668,0.483,0.935,0.451,0.506,0.419,0.453,0.532,0.405,0.847,0.829,0.53
EPDSLYGCGGG [ATM_Y2019],0.977,0.854,0.619,1.04,0.674,0.663,1.26,2.06,2.94,0.6,1.06,0.766,2.33,1.01,1.11,0.619
SIVEDYRPPFY [ACVRL1_Y421_G416S],0.599,0.622,0.462,0.995,0.743,0.785,1.25,0.483,0.427,0.496,0.804,0.551,0.472,1.22,1.1,0.552
VLVSQYEKLNA [AMZ2_Y26],0.915,0.632,2.71,0.578,0.548,0.524,0.732,0.438,0.467,0.434,0.417,0.341,0.389,0.619,0.638,0.362

# Second part, led by results:
SH2 binding enrichment (Grb2 SH2),SH2 binding enrichment (SHP2-C SH2),SH2 binding enrichment (c-Src SH2),Sequence,phosphorylation enrichment (c-Abl (mouse)),phosphorylation enrichment (FGFR3),phosphorylation enrichment (EPHB1),phosphorylation enrichment (Fes),phosphorylation enrichment (Fyn),phosphorylation enrichment (Hck),phosphorylation enrichment (MERTK),phosphorylation enrichment (Fer (mouse)),phosphorylation enrichment (EPHB2),phosphorylation enrichment (c-Src),phosphorylation enrichment (AncSZ),phosphorylation enrichment (Jak2),phosphorylation enrichment (FGFR1)
0.9,0.845,0.438,KILGRYFETGS [PAX2_Y72_YF],0.563,0.496,0.414,0.656,0.408,0.397,0.375,0.464,0.467,0.413,0.575,0.759,0.459
0.955,0.862,0.497,LHSEAYLKYNE [PBRM1_Y1610_I1614N],1.25,0.585,0.393,0.757,0.35,0.395,0.397,0.311,0.45,0.586,0.751,0.744,0.409
0.618,0.566,0.54,RLLCEYQELMN [KRT75_Y434_R432C],0.804,1.6,1.34,1.78,0.83,0.761,0.369,0.839,1.09,0.647,1.5,1.33,0.961
1.04,0.75,0.715,ATARPYSPFII [LRP5_Y1528_R1529S_YF],0.467,0.618,0.403,0.735,0.504,0.594,0.552,9.77,0.474,0.633,0.627,0.508,0.409
0.772,1.11,0.59,PTTKTYFPQFD [HBA1_Y43_H46Q],0.597,0.636,0.672,0.922,0.617,0.611,0.428,0.499,0.58,0.74,0.83,0.737,0.576
0.942,1.13,0.667,FRAPGYREVVI [TNS2_Y673_YF],0.525,0.446,0.466,0.618,0.399,0.416,0.467,0.325,0.422,0.409,0.52,0.55,0.502
0.926,0.633,0.548,PEVRRCVLPLN [RPE65_Y368_Y368C],0.871,0.774,0.673,1.14,0.366,0.48,0.458,0.644,0.487,0.586,0.906,0.927,0.495
1.17,0.861,0.598,GFRVFYTPDSR [PTPRF_Y451_YF],0.612,0.64,0.562,1.19,0.468,0.564,0.37,0.462,0.448,0.449,0.962,1.03,0.52
0.67,0.615,0.364,SPPPAFTPMSG [ERBB4_Y1056_Y1056F],0.45,0.465,0.349,0.441,0.305,0.469,0.461,0.439,0.416,0.442,0.597,0.496,0.402

# Source: the supplement of paper PMC10065799, “High-throughput profiling of sequence recognition by tyrosine kinases and SH2 domains using bacterial peptide display” (eLife, 2023)
